# Source: patent US9035028B2, “Temperature sensitive conjugate compositions” (Emory University, priority 2010, dated 2015)
# B1: EMP-scFv: fusion of elastin mimetic polypeptide (EMP) and activation-specific GPIIb/IIIa-blocking single-chain antibody; 704 amino acids, approximately 70 kDa (protein)
# chain: MAVPAVGIPAVGIPAVGIPAVGIPAVGIPAVGIPAVGIPAVGIPAVGIPAVGIPAVGIPAVGIPAVGIPAVGIPAVGIPAVGIPAVGIPAVGIPAVGIPAVGIPAVGIPAVGIPAVGIPAVGIPAVGIPAVGIPAVGIPAVGIPAVGIPAVGIPAVGIPAVGIPAVGIPAVGIPAVGIPAVGIPAVGIPAVGIPAVGIPAVGIPAVGIPAVGIPAVGIPAVGIPAVGIPAVGIPAVGIPAVGIPAVGIPAVGIPAVGIPAVGIPAVGIPAVGIPAVGIPAVGIPAVGIPAVGIPAVGIPAVGIPAVGIPAVGIPAVGIPAVGIPAVGIPAVGIPAVGIPAVGIPAVGIPAVGIPAVGIPAVGIPAVGIPAVGIPAVGIPAVGIPAVGIPAVGIPAVGIPAVGIPGGGGSMMAEVQLVESGGGLVQPGGSLRLSCAASGFMFSRYAMSWVRQAPGKGPEWVSGISGSGGSTYYADSVKGRFTVSRDNSKNTLYLQMNSLRAEDTAVYYCARIFTHRSRGDVPDQTSFDYWGQGTLVTVSSGSASAPKLEEGEFSEARVSSELTQDPAVSVALGQTVRITCQGDSLRNFYASWYQQKPGQAPTLVIYGLSKRPSGIPDRFSASSSGNTASLTITGAQAEDEADYYCLLYYGGGQQGVFGGGTKLTVLRQPKAAPSVTLFPPSSAAAGSEQKLISEEDLNSHHHHHH
# Target: T1, GPIIb/IIIa on mouse platelets (Mus musculus, UniProt O54890+Q9QUM0)
# T1 construct: endogenous in cells
# T1 sequence (Q9QUM0 32-1033): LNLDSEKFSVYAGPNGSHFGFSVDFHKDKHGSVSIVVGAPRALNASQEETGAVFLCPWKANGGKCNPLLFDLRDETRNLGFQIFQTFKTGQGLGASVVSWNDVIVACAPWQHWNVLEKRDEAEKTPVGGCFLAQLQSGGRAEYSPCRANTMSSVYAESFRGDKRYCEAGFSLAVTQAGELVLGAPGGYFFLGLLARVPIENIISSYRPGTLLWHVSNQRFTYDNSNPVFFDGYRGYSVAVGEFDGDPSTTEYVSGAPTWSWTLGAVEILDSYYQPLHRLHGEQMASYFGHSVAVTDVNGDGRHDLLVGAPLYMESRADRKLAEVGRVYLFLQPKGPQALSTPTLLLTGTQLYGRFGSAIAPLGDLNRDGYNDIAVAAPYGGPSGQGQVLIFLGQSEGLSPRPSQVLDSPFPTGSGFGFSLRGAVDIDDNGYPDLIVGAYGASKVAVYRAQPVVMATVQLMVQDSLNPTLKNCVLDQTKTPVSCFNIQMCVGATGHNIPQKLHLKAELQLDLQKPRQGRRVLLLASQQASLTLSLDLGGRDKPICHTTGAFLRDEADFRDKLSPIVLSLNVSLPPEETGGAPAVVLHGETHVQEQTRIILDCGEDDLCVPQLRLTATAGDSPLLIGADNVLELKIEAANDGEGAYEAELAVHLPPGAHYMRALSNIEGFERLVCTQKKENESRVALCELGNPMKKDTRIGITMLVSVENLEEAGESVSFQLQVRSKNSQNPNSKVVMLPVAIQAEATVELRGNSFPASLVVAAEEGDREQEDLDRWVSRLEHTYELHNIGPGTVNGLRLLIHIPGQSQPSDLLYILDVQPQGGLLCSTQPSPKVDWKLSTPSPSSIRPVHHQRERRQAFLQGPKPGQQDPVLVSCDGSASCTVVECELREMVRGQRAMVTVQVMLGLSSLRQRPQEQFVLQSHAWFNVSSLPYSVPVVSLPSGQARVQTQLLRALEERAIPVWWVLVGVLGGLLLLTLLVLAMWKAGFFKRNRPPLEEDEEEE
# T1 sequence (O54890 26-787): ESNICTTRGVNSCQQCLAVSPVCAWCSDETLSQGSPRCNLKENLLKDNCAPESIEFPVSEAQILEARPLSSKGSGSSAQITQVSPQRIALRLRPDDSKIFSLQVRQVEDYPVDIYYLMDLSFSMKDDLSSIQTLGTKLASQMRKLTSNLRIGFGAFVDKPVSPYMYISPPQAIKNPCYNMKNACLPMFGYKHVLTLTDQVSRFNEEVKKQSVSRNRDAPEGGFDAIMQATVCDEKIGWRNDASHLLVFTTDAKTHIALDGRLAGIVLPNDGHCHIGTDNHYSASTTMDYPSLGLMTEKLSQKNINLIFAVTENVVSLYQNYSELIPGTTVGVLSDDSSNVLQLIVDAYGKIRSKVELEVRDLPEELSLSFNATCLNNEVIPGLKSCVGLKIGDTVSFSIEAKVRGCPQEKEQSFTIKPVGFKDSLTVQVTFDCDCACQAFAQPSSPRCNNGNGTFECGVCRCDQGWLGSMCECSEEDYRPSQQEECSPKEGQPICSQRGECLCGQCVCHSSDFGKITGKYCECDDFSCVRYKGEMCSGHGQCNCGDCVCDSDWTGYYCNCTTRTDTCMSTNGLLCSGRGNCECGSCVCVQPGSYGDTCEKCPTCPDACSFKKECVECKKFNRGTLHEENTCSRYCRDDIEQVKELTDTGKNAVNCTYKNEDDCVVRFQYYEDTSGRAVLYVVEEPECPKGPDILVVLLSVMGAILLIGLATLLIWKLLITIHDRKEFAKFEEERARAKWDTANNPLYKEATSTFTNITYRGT
# Experiment: Flow cytometry: inhibition of fibrinogen binding to mouse platelets
# Format: cell-based
# Protocol: Mouse blood was collected by intracardiac puncture with a 27-gauge needle from C57BL/6 mice and anticoagulated with non-fractionated heparin (20 U/mL). A volume of 50 μl was washed with 1 mL modified Tyrode's buffer (150 mM NaCl, 2.5 mM KCl, 1.2 mM NaHCO3, 0.1% BSA, 0.1% Glucose) and centrifuged at 1200×g for 6 min. The supernatant was discarded and the pellet was resuspended in 1 mL modified Tyrode's buffer containing 2 mM MgCl2 and 2 mM CaCl2.
# Human PRP was diluted 1/50 in modified Tyrode's buffer containing 2 mM MgCl2 and 2 mM CaCl2. Platelets were either activated by addition of 20 μM ADP, or non activated, followed by the incubation with 15 and 50 μg/mL EMP-scFv fusion protein or EMP at 22° C., 32° C. and at 37° C. for 15 min. Mouse platelets were either pre-activated for 10 min by addition of 0.1 U/mL thrombin (Enzyme Research Laboratories), or non activated, before the incubation with 15 and 50 μg/mL of EMP-scFv fusion protein at 22° C., 32° C. or 37° C. for 15 min. In both, human and mouse samples, EMP-scFv was detected via 15 min in-dark incubation with secondary antibody (Penta-His Alexa Fluor 488, Qiagen) directed against the His(6)-tag of the single-chain antibody.
# Fibrinogen binding to human activated platelets in the presence of EMP-scFv was determined with a polyclonal rabbit anti-human fibrinogen FITC-labelled antibody (DakoCytomation), while the effects of EMP-scFv on fibrinogen binding to mouse platelets were determined using FITC-conjugated rabbit anti-fibrinogen polyclonal antibody (Cemfret). Fluorescence detection was performed as described above. Samples were measured in a FACSCalibur® flow cytometer (Becton Dickinson), after fixation with 1× CellFIX® (Becton Dickinson).
molecule,measurement,setting,value
B1,fibrinogen binding to activated mouse platelets,22° C.,significant decrease
same,fibrinogen binding to activated mouse platelets,32° C.,inhibit the binding of fibrinogen
same,fibrinogen binding to activated mouse platelets,37° C.,did not affect
